# Measured values from patent US11402384B2 (Duke University, priority 2015, dated 2022).
# Substitutions are numbered along the chain they refer to. Names and notes keep the numbering of the source. Like-named read-outs stand apart in the source and are kept apart here.
# B1: W167C Acrylodan: tsGBP2_C167 (SEQ ID NO: 26) Acrylodan conjugate (conjugate)
# chain: MKLEIFSWWAGDEGPALEALIRLYKQKYPGVEVINATVTGGAGVNAKAVLKTRMLGGDPPDTFQVHAGQELIGTWVVADRMEDLTSLFRQEGWLQAFPKGLIDLLSYKGGIWSVPVNIHRSNVMWYIPAKLKEWGVTPPKTWAEFLATAQTLKRKGLEAPLALGENCTQQHLWESVALATLGADGWNNLWSGKLKFTDPKAVAVWETFGKVLDAANKDAAGLSWQQAVDRVVQGKAAFNIMGDWAAGYMSTTLKLKPGTDFAWTPSPGTSGIFMMLSDSFGLPKGAKNRQNAINWLKLVGSKEGQDTFNPLKGSIAARLDSDPAKYNAYGQSAMKDWKSNRIVGSLVHGAVAPESFMSQFGTVMEIFLQSRNPQAAANAAQAIANQVGLGRGGSHHHHHH
# modifications: Acrylodan conjugate; tsGBP2_C167 (167C substitution mutant with signal peptide replaced with M and a GGSHHHHHH at C-terminus)
# B2: W167C Badan: tsGBP2_C167 (SEQ ID NO: 26) Badan conjugate (conjugate)
# chain: B1 chain
# modifications: Badan conjugate; tsGBP2_C167 (167C substitution mutant with signal peptide replaced with M and a GGSHHHHHH at C-terminus)
# B3: Q225C Badan: tsGBP2_C225 (SEQ ID NO: 29) Badan conjugate (conjugate)
# chain: B1 chain with C167W, Q225C
# modifications: Badan conjugate; tsGBP2_C225 (225C substitution mutant with signal peptide replaced with M and a GGSHHHHHH at C-terminus)
# B4: W224C Acrylodan: tsGBP2_C224 (SEQ ID NO: 28) Acrylodan conjugate (conjugate)
# chain: B1 chain with C167W, W224C
# modifications: Acrylodan conjugate; tsGBP2_C224 (224C substitution mutant with signal peptide replaced with M and a GGSHHHHHH at C-terminus)
# B5: S277C Acrylodan: tsGBP2_C277 (SEQ ID NO: 31) Acrylodan conjugate (conjugate)
# chain: B1 chain with C167W, S277C
# modifications: Acrylodan conjugate; tsGBP2_C277 (cysteine substitution mutant with signal peptide replaced with M and a GGSHHHHHH at C-terminus)
# B6: D278C Acrylodan: tsGBP2_C278 (SEQ ID NO: 32) Acrylodan conjugate (conjugate)
# chain: B1 chain with C167W, D278C
# modifications: Acrylodan conjugate; tsGBP2_C278 (278C substitution mutant with signal peptide replaced with M and a GGSHHHHHH at C-terminus)
# B7: W244C Badan: tsGBP2_C244 (SEQ ID NO: 30) Badan conjugate (conjugate)
# chain: B1 chain with C167W, W244C
# modifications: Badan conjugate; tsGBP2_C244 (244C substitution mutant with signal peptide replaced with M and a GGSHHHHHH at C-terminus)
# B8: Q225C Acrylodan: tsGBP2_C225 (SEQ ID NO: 29) Acrylodan conjugate (conjugate)
# chain: B1 chain with C167W, Q225C
# modifications: Acrylodan conjugate; tsGBP2_C225 (225C substitution mutant with signal peptide replaced with M and a GGSHHHHHH at C-terminus)
# B9: S223C Badan: tsGBP2_C223 (SEQ ID NO: 27) Badan conjugate (conjugate)
# chain: B1 chain with C167W, S223C
# modifications: Badan conjugate; tsGBP2_C223 (223C substitution mutant with signal peptide replaced with M and a GGSHHHHHH at C-terminus)
# B10: K312C Badan: tsGBP2_C312 (SEQ ID NO: 33) Badan conjugate (conjugate)
# chain: B1 chain with C167W, K312C
# modifications: Badan conjugate; tsGBP2_C312 (312C substitution mutant with signal peptide replaced with M and a GGSHHHHHH at C-terminus)
# B11: K312C Acrylodan: tsGBP2_C312 (SEQ ID NO: 33) Acrylodan conjugate (conjugate)
# chain: B1 chain with C167W, K312C
# modifications: Acrylodan conjugate; tsGBP2_C312 (312C substitution mutant with signal peptide replaced with M and a GGSHHHHHH at C-terminus)
# B12: S223C Acrylodan: tsGBP2_C223 (SEQ ID NO: 27) Acrylodan conjugate (conjugate)
# chain: B1 chain with C167W, S223C
# modifications: Acrylodan conjugate; tsGBP2_C223 (223C substitution mutant with signal peptide replaced with M and a GGSHHHHHH at C-terminus)
# B13: S277C Badan: tsGBP2_C277 (SEQ ID NO: 31) Badan conjugate (conjugate)
# chain: B1 chain with C167W, S277C
# modifications: Badan conjugate; tsGBP2_C277 (cysteine substitution mutant with signal peptide replaced with M and a GGSHHHHHH at C-terminus)
# B14: W224C Badan: tsGBP2_C224 (SEQ ID NO: 28) Badan conjugate (conjugate)
# chain: B1 chain with C167W, W224C
# modifications: Badan conjugate; tsGBP2_C224 (224C substitution mutant with signal peptide replaced with M and a GGSHHHHHH at C-terminus)
# B15: D278C Badan: tsGBP2_C278 (SEQ ID NO: 32) Badan conjugate (conjugate)
# chain: B1 chain with C167W, D278C
# modifications: Badan conjugate; tsGBP2_C278 (278C substitution mutant with signal peptide replaced with M and a GGSHHHHHH at C-terminus)
# B16: W337 Badan: tsGBP2_C337 (SEQ ID NO: 34) Badan conjugate (conjugate)
# chain: B1 chain with C167W, W337C
# modifications: Badan conjugate; tsGBP2_C337 (337C substitution mutant with signal peptide replaced with M and a GGSHHHHHH at C-terminus)
# B17: W337 Acrylodan: tsGBP2_C337 (SEQ ID NO: 34) Acrylodan conjugate (conjugate)
# chain: B1 chain with C167W, W337C
# modifications: Acrylodan conjugate; tsGBP2_C337 (337C substitution mutant with signal peptide replaced with M and a GGSHHHHHH at C-terminus)
# B18: H348 Badan: tsGBP2_C348 (SEQ ID NO: 35) Badan conjugate (conjugate)
# chain: B1 chain with C167W, H348C
# modifications: Badan conjugate; tsGBP2_C348 (348C substitution mutant with signal peptide replaced with M and a GGSHHHHHH at C-terminus)
# Experiment: Ratiometric fluorescence glucose titration of fluorescent conjugates
# Format: binding
# Set-up: key to Shape (fluorescence response to glucose) / Change (fluorescence response to glucose): m, monochromatic; d, dichromatic (i.e. spectral shape change); 0, no change
# Details: tsGBP2 cysteine scan; for Kd: ratiometric fit at λ1 and λ2
# Text: Semi-synthetic FRSs can be engineered by site-specifically attaching thiol-reactive, environmentally sensitive fluorophores that respond to ligand-mediated conformational changes. Identification of FRS candidates that can be used for sensing applications comprises three steps: • 1. Cysteine scan. Mutant glucose-binding proteins containing single cysteines are constructed for site-specific attachment of thiol-reactive fluorophores. […] Candidate positions fall into three classes: endosteric, replacing a residue that contacts the ligand directly; peristeric, located at the rim of the binding site; allosteric (Marvin et al., 1997, Proc Natl Acad Sci USA, 94, 4366-71; Marvin, 1998, J Am Chem Soc, 120, 7-11), located outside the binding site at sites that undergo local structural changes in concert with the hinge-bending motion. • 2. Fluorophore screening. Thiol-reactive, environmentally sensitive fluorophores are attached to each cysteine mutant prepared in step 1. • 3. Evaluation of the glucose-mediated change of all the fluorescent conjugates prepared in step 2. Responses to ligand binding in which there is both a change in fluorescence emission intensity and spectral shape are essential for chemometric applications, because such changes enable ratiometric measurements. Changes in spectral shape typically are accompanied by a shift in the wavelength of the emission intensity maxima. Three classes of fluorescent responses are possible: • i. No response. • ii. Monochromatic response (emission intensity increases or decreases without a change in spectral shape) • iii.
# Determination of temperature- and ligand-dependent fluorescence landscapes. […] Temperatures were advanced in 1K steps.
# Determination of emission intensity spectra.
# 2 For a single glucose-binding site, the fractional saturation is given by […]
# [1] = Acrylodan conjugate, read-out: Kd ^appKd
# [2] = Acrylodan conjugate, read-out: Kd ^trueKd
Molecule,Shape (fluorescence response to glucose) (Acrylodan conjugate),Shape (fluorescence response to glucose) (Badan conjugate),other results
B1,d,,Kd [1]: 20 µM; Kd [2]: 20 µM
B2,,m,
B3,,m,
B4,m,,Kd [1]: 700 µM; Kd [2]: 900 µM
B5,0,,
B6,m,,
B7,,m,
B8,m,,
B9,,m,
B10,,m,
B11,d,,Kd [1]: 9 µM; Kd [2]: 10 µM
B12,0,,
B13,,0,
B14,,0,
B15,,0,
B16,,0,
B17,m,,
B18,,d,"Kd (Badan conjugate, read-out: Kd ^appKd): ~4300 µM; Kd (Badan conjugate, read-out: Kd ^trueKd): ~5200 µM"
